In patent publication US20230331811A1, “IMMOBILIZED SELF-ASSEMBLED PROTEIN MULTIMERS” (CCOA THERAPEUTICS INC., priority 2020, published 2023):

Experiments:
[1] = target: Recombinant human ectodomain αIIbβ3, inactive (before activation) (human) (UniProt P08514); experiment: flow cytometry, 50 nM Alexa488-fibrinogen on inactive αIIbβ3 beads
[2] = target: Recombinant human ectodomain αIIbβ3, inactive (before activation) (human) (UniProt P08514); experiment: flow cytometry, 50 nM FITC-PAC 1 on inactive αIIbβ3 beads
[3] = target: Recombinant human ectodomain αIIbβ3, activated (high-affinity ligand binding conformation) (human) (UniProt P08514); experiment: flow cytometry, 50 nM FITC-PAC 1 on activated αIIbβ3 beads
Chain of Recombinant human ectodomain αIIbβ3, activated (high-affinity ligand binding conformation) (human) (P08514 other isoform, or with tags, fused parts or gaps limits assumed, chain 1 of 2): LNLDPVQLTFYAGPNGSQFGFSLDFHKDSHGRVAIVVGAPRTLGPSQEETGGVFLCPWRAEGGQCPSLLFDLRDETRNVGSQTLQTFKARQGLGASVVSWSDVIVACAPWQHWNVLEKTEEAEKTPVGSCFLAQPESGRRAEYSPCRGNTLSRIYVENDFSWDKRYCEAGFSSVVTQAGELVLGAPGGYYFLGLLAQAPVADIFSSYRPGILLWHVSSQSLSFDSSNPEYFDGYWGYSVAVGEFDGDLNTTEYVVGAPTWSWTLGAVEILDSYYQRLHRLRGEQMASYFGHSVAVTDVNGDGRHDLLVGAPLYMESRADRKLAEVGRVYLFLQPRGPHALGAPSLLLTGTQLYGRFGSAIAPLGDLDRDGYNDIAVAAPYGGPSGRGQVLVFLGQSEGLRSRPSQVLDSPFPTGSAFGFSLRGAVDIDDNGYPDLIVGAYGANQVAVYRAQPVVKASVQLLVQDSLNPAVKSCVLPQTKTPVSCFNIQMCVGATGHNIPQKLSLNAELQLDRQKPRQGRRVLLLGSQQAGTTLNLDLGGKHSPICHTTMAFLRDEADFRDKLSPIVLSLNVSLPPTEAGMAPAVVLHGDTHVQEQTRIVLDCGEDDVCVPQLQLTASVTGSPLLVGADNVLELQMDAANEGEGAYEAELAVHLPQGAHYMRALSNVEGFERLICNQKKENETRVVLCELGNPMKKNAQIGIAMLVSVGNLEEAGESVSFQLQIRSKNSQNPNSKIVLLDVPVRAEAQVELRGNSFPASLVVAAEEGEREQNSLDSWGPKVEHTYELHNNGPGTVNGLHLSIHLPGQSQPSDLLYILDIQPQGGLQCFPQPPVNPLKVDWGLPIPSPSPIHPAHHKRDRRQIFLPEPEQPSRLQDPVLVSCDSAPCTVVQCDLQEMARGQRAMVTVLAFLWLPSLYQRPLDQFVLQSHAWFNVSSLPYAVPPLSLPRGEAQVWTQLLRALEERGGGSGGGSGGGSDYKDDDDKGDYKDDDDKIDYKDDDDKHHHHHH
Chain of Recombinant human ectodomain αIIbβ3, activated (high-affinity ligand binding conformation) (human) (chain, as listed by the source limits assumed, chain 2 of 2): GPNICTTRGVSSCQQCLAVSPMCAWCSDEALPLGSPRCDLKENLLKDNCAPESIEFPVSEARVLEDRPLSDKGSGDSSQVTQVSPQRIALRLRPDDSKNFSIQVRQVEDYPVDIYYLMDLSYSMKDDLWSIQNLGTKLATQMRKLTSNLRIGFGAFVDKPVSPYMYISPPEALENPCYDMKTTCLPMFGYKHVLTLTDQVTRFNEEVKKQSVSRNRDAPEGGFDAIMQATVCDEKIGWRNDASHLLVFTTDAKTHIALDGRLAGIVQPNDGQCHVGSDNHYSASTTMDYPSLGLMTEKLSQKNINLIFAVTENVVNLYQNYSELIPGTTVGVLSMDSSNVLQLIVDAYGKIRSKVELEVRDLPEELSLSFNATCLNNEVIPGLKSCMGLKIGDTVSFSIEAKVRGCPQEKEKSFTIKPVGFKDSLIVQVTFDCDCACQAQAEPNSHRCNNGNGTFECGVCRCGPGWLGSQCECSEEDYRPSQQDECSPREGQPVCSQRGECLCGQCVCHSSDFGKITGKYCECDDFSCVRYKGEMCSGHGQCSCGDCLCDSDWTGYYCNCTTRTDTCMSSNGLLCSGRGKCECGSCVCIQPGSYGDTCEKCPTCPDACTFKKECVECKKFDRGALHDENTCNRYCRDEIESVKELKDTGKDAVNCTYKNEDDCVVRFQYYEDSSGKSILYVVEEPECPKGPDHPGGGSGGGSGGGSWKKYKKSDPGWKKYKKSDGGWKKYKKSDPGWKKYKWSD

Chain of Recombinant human ectodomain αIIbβ3, inactive (before activation) (human) (P08514 other isoform, or with tags, fused parts or gaps limits assumed, chain 1 of 2): as the sequence (P08514 other isoform, or with tags, fused parts or gaps limits assumed, chain 1 of 2) above
Chain of Recombinant human ectodomain αIIbβ3, inactive (before activation) (human) (chain, as listed by the source limits assumed, chain 2 of 2): as the sequence (chain, as listed by the source limits assumed, chain 2 of 2) above

Mean Fluorescence Intensity (MFI) [1] [MFI]	Mean Fluorescence Intensity (MFI) [2] [MFI]	Mean Fluorescence Intensity (MFI) [3] [MFI]	Substance
52.7			Fibrinogen (from UniProt P02671 20-644; P02675 31-491; P02679 27-437) (ligand)
	212	942	PAC-1 (antibody specific for the active upright conformation of αIIbβ3)
